# Target: HalM2, class II lanthipeptide synthetase (wild type) (Bacillus halodurans)
# Assay: native MS
substance,measurement,value
HalA2 precursor peptide (full-length),Kd,2400 nM
same,stoichiometry N,1

# Reference: publication doi:10.1101/2020.09.01.277863
